Source: article PMC6857237

What was measured:
[1] = biological target: Olfm1^BMY (olfactomedin-1 natural short isoform BMY, residues 17–153), disulfide-linked tetramer (mouse (Mus musculus)); experiment: non-reducing SDS-PAGE; Coomassie-stained SDS-PAGE of purified protein with and without DTT; covalent (disulfide-linked) oligomeric state
[2] = biological target: Olfm1^BMY (olfactomedin-1 natural short isoform BMY, residues 17–153), disulfide-linked tetramer (mouse (Mus musculus)); experiment: SEC-MALS; analytical Superdex200 Increase 10/300, room temperature, SEC buffer (150 mM NaCl, 2 mM CaCl2, 20 mM HEPES pH 7.5), 0.5 mL/min; aldolase as calibration standard
[3] = biological target: Olfm1^BMY (olfactomedin-1 natural short isoform BMY, residues 17–153), disulfide-linked tetramer (mouse (Mus musculus)); experiment: SAXS; ESRF BM29, 0.615 mg/mL in SEC buffer (150 mM NaCl, 2 mM CaCl2, 20 mM HEPES pH 7.5), 277 K; mass from I0

Measured: stoichiometry N

Olfm1^BMY (olfactomedin-1 natural short isoform BMY, residues 17–153), disulfide-linked tetramer (natural protein), sequence (O88998 17-485): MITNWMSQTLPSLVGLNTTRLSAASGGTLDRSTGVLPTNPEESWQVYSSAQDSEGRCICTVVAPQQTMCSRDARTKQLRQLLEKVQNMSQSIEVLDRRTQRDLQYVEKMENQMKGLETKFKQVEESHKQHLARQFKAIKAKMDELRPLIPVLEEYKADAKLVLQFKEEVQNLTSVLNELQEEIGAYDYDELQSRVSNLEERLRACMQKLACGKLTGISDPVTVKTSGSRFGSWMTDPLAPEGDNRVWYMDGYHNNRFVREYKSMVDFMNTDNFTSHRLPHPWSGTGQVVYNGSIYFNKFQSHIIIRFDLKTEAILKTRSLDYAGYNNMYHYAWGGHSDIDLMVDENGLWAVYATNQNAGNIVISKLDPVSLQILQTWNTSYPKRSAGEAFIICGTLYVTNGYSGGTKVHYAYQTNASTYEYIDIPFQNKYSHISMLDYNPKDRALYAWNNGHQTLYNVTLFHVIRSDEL

Olfm1^BMY (olfactomedin-1 natural short isoform BMY, residues 17–153), disulfide-linked tetramer (natural protein)
4: all assays above
